± gives the uncertainty stated by the source.
Assay: self-splicing fitness, log relative to wild type (ln ratio); higher = more splicing; Tetrahymena group I intron in knt gene, E. coli kanamycin selection, DiMSum; sequences stand for … in CUCUCU…GGAGGGAAAAGUUAUCAGGCAUGCACCUGGUAGCUAGUCUUUAAACCAAUAGAUUGCAUCGGUUUAAAAGGCAAGACCGUCAAAUUGCGGGAAAGGGGUCAACAGCCGUUCAGUACCAAGUCUCAGGGGAAACUUUGAGAUGGCCUUGCAAAGGGUAUGGUAAUAAGCUGACGGACAUGGUCCUAACCACGCAGCCAAGUCCUAAGUCAACAGAUCUUCUGUUGAUAUGGAUGCAGUUCACAGACUAAAUGUCGGUCGGGGAAGAUGUAUUCUUCUCAUAAGAUAUAGUCGGACCUCUCCUUAAUGGGAGCUAGCGGAUGAAGUGAUGCAACACUGGAGCCGCUGGGAACUAAUUUGUAUGCGAAAGUAUAUUGAUUAGUUUUGGAGUACUCGUGGUCG
In short: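 Colonies from six replicate transformations of E. coli BL21(DE3) were pooled and amplicon-sequenced on an Illumina HiSeq 2500. The library placed an intron with all eight P1ex-region nucleotides randomised inside the knt kanamycin-resistance gene on pET-22b(+), and cells grew overnight at 37°C or 30°C on LB agar with or without 25 μg/mL kanamycin (plus 100 μg/mL carbenicillin, 50 μM IPTG, 0.2% rhamnose). Fitness is the DiMSum error-weighted combination of wild-type-normalised replicate fold changes, kanamycin versus none.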

| Sequence | self-splicing fitness (ln) (37 °C) | self-splicing fitness (ln) (30 °C) |
| --- | --- | --- |
| ACCGAGCAAUAUUACGCCUA | -1.93 ± 0.28 |  |
| ACCGAGCAAUAUUACGCGGU | -1.7 ± 0.2 | -3.02 ± 0.18 |
| ACCGAGCAAUAUUACGGAGC | -1.73 ± 0.13 | -3.33 ± 0.18 |
| ACCGAGCAAUAUUACGGCGU | -0.172 ± 0.11 | -0.733 ± 0.082 |
| ACCGAGCAAUAUUACGGGAA | -2.56 ± 0.22 | -2.52 ± 0.21 |
| ACCGAGCAAUAUUACGGGAG | -2.69 ± 0.3 | -3.54 ± 0.2 |
| ACCGAGCAAUAUUACGGUCG | -1.68 ± 0.15 | -3.22 ± 0.23 |
| ACCGAGCAAUAUUACGGUGC | -3.33 ± 0.37 | -2.97 ± 0.21 |
| ACCGAGCAAUAUUACGUACU | -0.966 ± 0.14 | -2.31 ± 0.13 |
| ACCGAGCAAUAUUACGUAUA | -2.6 ± 0.27 | -3.96 ± 0.35 |
| ACCGAGCAAUAUUACGUAUU | -1.98 ± 0.17 | -3.21 ± 0.16 |
| ACCGAGCAAUAUUACGUCAG | -2.73 ± 0.17 | -3.7 ± 0.16 |
| ACCGAGCAAUAUUACGUCCU | -0.0861 ± 0.11 | -1.71 ± 0.1 |
| ACCGAGCAAUAUUACGUCGG | -3.13 ± 0.35 | -4.23 ± 0.39 |
| ACCGAGCAAUAUUACGUGGG | -2.87 ± 0.2 | -2.62 ± 0.18 |
| ACCUAGCAAUAUUACGAAGC | -0.832 ± 0.15 | -1.56 ± 0.11 |
| ACCUAGCAAUAUUACGACUG | -1.46 ± 0.18 | -2.84 ± 0.15 |
| ACCUAGCAAUAUUACGAGAC | -1.89 ± 0.24 | -3.14 ± 0.4 |
| ACCUAGCAAUAUUACGAGCC | -2.37 ± 0.3 | -2.81 ± 0.19 |
| ACCUAGCAAUAUUACGAGUG | -0.982 ± 0.092 | -1.43 ± 0.077 |
| ACCUAGCAAUAUUACGAGUU | -1.24 ± 0.1 | -2.28 ± 0.087 |
| ACCUAGCAAUAUUACGAUCG | -0.6 ± 0.1 | -1.19 ± 0.083 |
| ACCUAGCAAUAUUACGCCCA | -0.343 ± 0.12 | -1.16 ± 0.11 |
| ACCUAGCAAUAUUACGCCCG | -1.13 ± 0.28 | -1.73 ± 0.27 |

| Sequence | self-splicing fitness (ln) (37 °C) | self-splicing fitness (ln) (30 °C) |
| --- | --- | --- |
| ACCUAGCAAUAUUACGCCGC | -2.05 ± 0.4 | -2.21 ± 0.32 |
| ACCUAGCAAUAUUACGCGGG |  | -3.58 ± 0.24 |
| ACCUAGCAAUAUUACGCUAU | -1.1 ± 0.1 | -1.89 ± 0.084 |
| ACCUAGCAAUAUUACGGAUC | -1.35 ± 0.15 | -2.65 ± 0.13 |
| ACCUAGCAAUAUUACGGCCG | -1 ± 0.34 | -2.22 ± 0.43 |
| ACCUAGCAAUAUUACGGCUG | -2.32 ± 0.18 | -4.76 ± 0.36 |
| ACCUAGCAAUAUUACGGCUU | 0.252 ± 0.098 | -0.695 ± 0.076 |
| ACCUAGCAAUAUUACGGGCA | 0.19 ± 0.13 | -0.58 ± 0.11 |
| ACCUAGCAAUAUUACGGUAA | -1.89 ± 0.13 | -2.62 ± 0.13 |
| ACCUAGCAAUAUUACGUAAG | -0.172 ± 0.081 | -1.53 ± 0.065 |
| ACCUAGCAAUAUUACGUGGG | -3.4 ± 0.24 | -3.54 ± 0.17 |
| ACCUAGCAAUAUUACGUGGU | -2.95 ± 0.16 | -3.6 ± 0.14 |
| ACCUAGCAAUAUUACGUGUU | -1.4 ± 0.085 | -3.18 ± 0.1 |
| ACCUAGCAAUAUUACGUUGG | -2.46 ± 0.14 | -2.35 ± 0.092 |
| ACGAAGCAAUAUUACGAAUA | 0.937 ± 0.18 | -2.01 ± 0.26 |
| ACGAAGCAAUAUUACGACUG | -0.396 ± 0.098 | -0.657 ± 0.09 |
| ACGAAGCAAUAUUACGAGUC | -2.21 ± 0.19 | -4.22 ± 0.24 |
| ACGAAGCAAUAUUACGAUCU | -0.244 ± 0.082 | -0.659 ± 0.081 |
| ACGAAGCAAUAUUACGCAAG | -0.171 ± 0.18 | -1.02 ± 0.14 |
| ACGAAGCAAUAUUACGCAGG | -1.44 ± 0.12 | -1.67 ± 0.11 |
| ACGAAGCAAUAUUACGCGGG | -0.782 ± 0.1 | -1.62 ± 0.086 |
| ACGAAGCAAUAUUACGCGUA | -0.335 ± 0.084 | -1.27 ± 0.11 |
| ACGAAGCAAUAUUACGCUAA | -0.582 ± 0.083 | -1.22 ± 0.079 |
| ACGAAGCAAUAUUACGCUGA | -0.99 ± 0.1 | -0.881 ± 0.11 |

| Sequence | self-splicing fitness (ln) (37 °C) | self-splicing fitness (ln) (30 °C) |
| --- | --- | --- |
| ACGAAGCAAUAUUACGCUGC | -1.35 ± 0.18 | -3.95 ± 0.25 |
| ACGAAGCAAUAUUACGCUGG | -0.428 ± 0.11 | -1.07 ± 0.098 |
| ACGAAGCAAUAUUACGGAAC | -1.95 ± 0.25 | -3.19 ± 0.26 |
| ACGAAGCAAUAUUACGGGCA | -0.631 ± 0.075 | -1.46 ± 0.068 |
| ACGAAGCAAUAUUACGGUCC | -0.717 ± 0.21 | -1.92 ± 0.21 |
| ACGAAGCAAUAUUACGUAAA | -1.45 ± 0.19 | -2.9 ± 0.18 |
| ACGAAGCAAUAUUACGUAGA | -2.89 ± 0.27 | -3.72 ± 0.24 |
| ACGAAGCAAUAUUACGUGAC | -1.12 ± 0.17 | -3.87 ± 0.26 |
| ACGAAGCAAUAUUACGUUGG | -2.38 ± 0.17 | -3.56 ± 0.16 |
| ACGCAGCAAUAUUACGAUCA | -1.26 ± 0.093 | -1.66 ± 0.099 |
| ACGCAGCAAUAUUACGAUCU | 0.356 ± 0.091 | -0.427 ± 0.063 |
| ACGCAGCAAUAUUACGAUUA | -0.902 ± 0.079 | -1.54 ± 0.091 |
| ACGCAGCAAUAUUACGCAGC | -2.16 ± 0.25 | -3.49 ± 0.18 |
| ACGCAGCAAUAUUACGCCAC | -3.22 ± 0.37 |  |
| ACGCAGCAAUAUUACGCCCA | -0.153 ± 0.12 | -0.672 ± 0.096 |
| ACGCAGCAAUAUUACGCGAU | -2.22 ± 0.16 | -3.38 ± 0.16 |
| ACGCAGCAAUAUUACGCGGG | -0.419 ± 0.099 | -2.94 ± 0.12 |
| ACGCAGCAAUAUUACGCUAU | -0.724 ± 0.11 | -1.25 ± 0.077 |
| ACGCAGCAAUAUUACGCUUC | -2.48 ± 0.22 | -2.75 ± 0.26 |
| ACGCAGCAAUAUUACGGAAC | -1.78 ± 0.17 | -3.67 ± 0.2 |
| ACGCAGCAAUAUUACGGAAU | -2.07 ± 0.14 | -2.27 ± 0.1 |
| ACGCAGCAAUAUUACGGCGC | -1.63 ± 0.11 | -3.39 ± 0.14 |
| ACGCAGCAAUAUUACGGCGG | -1.91 ± 0.14 | -2.14 ± 0.074 |
| ACGCAGCAAUAUUACGGGCG | -1.3 ± 0.072 | -1.5 ± 0.063 |

| Sequence | self-splicing fitness (ln) (37 °C) | self-splicing fitness (ln) (30 °C) |
| --- | --- | --- |
| ACGCAGCAAUAUUACGGGUA | -1.37 ± 0.087 | -2.46 ± 0.11 |
| ACGCAGCAAUAUUACGGUGC |  | -2.18 ± 0.15 |
| ACGCAGCAAUAUUACGGUGG | -1.17 ± 0.11 | -2.52 ± 0.11 |
| ACGCAGCAAUAUUACGGUUG | -1.85 ± 0.14 | -3.89 ± 0.2 |
| ACGCAGCAAUAUUACGUAAC | -2.37 ± 0.23 | -3.99 ± 0.22 |
| ACGCAGCAAUAUUACGUAAG | -1.27 ± 0.13 | -0.0743 ± 0.099 |
| ACGCAGCAAUAUUACGUCGU | -1.6 ± 0.21 | -3.77 ± 0.26 |
| ACGCAGCAAUAUUACGUGGU | -2.58 ± 0.091 | -4.06 ± 0.12 |
| ACGCAGCAAUAUUACGUUGA | -1.73 ± 0.11 | -1.43 ± 0.11 |
| ACGCAGCAAUAUUACGUUUC | -2.61 ± 0.25 | -3.87 ± 0.2 |
| ACGGAGCAAUAUUACGACGG | 0.14 ± 0.12 | -1.46 ± 0.1 |
| ACGGAGCAAUAUUACGAUAG | -3.09 ± 0.34 | -3.57 ± 0.29 |
| ACGGAGCAAUAUUACGAUGG | -0.86 ± 0.27 | -3.63 ± 0.32 |
| ACGGAGCAAUAUUACGCCAA | -3.34 ± 0.47 | -3.46 ± 0.33 |
| ACGGAGCAAUAUUACGCGCU | -1.17 ± 0.21 | -3.23 ± 0.3 |
| ACGGAGCAAUAUUACGCGGU | -1.03 ± 0.31 | -2.86 ± 0.25 |
| ACGGAGCAAUAUUACGCGUC | -1.92 ± 0.33 |  |
| ACGGAGCAAUAUUACGCUAC | -2.06 ± 0.39 | -3.07 ± 0.33 |
| ACGGAGCAAUAUUACGGACG | -1.17 ± 0.22 | -1.96 ± 0.19 |
| ACGGAGCAAUAUUACGGCUG | -1.26 ± 0.13 | -2.87 ± 0.12 |
| ACGGAGCAAUAUUACGGGUA | -3.02 ± 0.32 | -2.34 ± 0.25 |
| ACGGAGCAAUAUUACGGUUA | -2.2 ± 0.15 | -2.6 ± 0.23 |
| ACGGAGCAAUAUUACGUAAG | -1.82 ± 0.24 | -3.18 ± 0.2 |
| ACGGAGCAAUAUUACGUCAC | -2.42 ± 0.45 | -3.48 ± 0.31 |

Source: the supplement of paper PMC7877785
